Results on three sequences are retold here after publication PMC7658645.

Holding throughout (assay): dot blot (nitrocellulose filter binding)
What all share (details): 5 mM Mg2+; Dot blot/aptamer blot: 20 mM Tris-HCl, 100 mM NaCl, 5 mM MgCl2, 0.1% BSA (pH not given), 50 nM aptamer in dot blot (membranes equilibrated at 4 C), blots 1 h …

Data set [1] deals with GST (glutathione S-transferase tag) (UniProt P08515).
Data set [2] concerns MBP (maltose-binding protein tag).
Data set [3] concerns the target His-TrxA (His-tagged thioredoxin 1) (UniProt P0AA25).

In data set [1], “ATACGACTCACTATTAGGGACAAAGCTGACAACCCTTTCATAATCTAACTACATTTATGTGCTAGACTACTGACTAC [G1]” showed a Kd of 59 nM.
Turning to “ATACGACTCACTATTAGGGACCACATAAACATGCATCGCTCAATAACGGGATATTGTTGTGCTAGACTACTGACTACAA [M1]”, the Kd in data set [2] was 86 nM.
In data set [3], “ATACGACTCACTATTAGGGATGTCCACCATATAGATCGATTTAAGTCCCTCGTTATTAATGCTAGACTACTGACTACAA [H1]” displayed a Kd of 173 nM.
